Among the data in patent US20100120681A1 (Ablynx, published 2010) are koff values, retold here.

T1: E. coli expressed VEGF109 (human, UniProt P15692 207-315)
T1 construct: also called hVEGF109
T1 sequence: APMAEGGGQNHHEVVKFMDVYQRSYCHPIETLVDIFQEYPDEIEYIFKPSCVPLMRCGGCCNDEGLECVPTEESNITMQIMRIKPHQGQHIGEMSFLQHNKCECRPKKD

B1: PVEGFPMP42E3 (VHH)
VHH: EVQLVESGGGLVQAGGALRLSCAASGRTFETYRMGWFRQAPGKEREFVALINWSSGTTIYADSVKGRFTISGDNAKDTVYLEMNSLKPEDTAVYYCAVGRRWSGSYYSALAYQYWGQGTQVTVSS
notes: tested as periplasmic extract; not shown: C-terminal c-myc tag and (His)6 tag from the vector
B2: PVEGFPMP42E4 (VHH)
VHH: B1 VHH with V5M, A17S, A24V, T31S, A49S, T57K, R101A
notes: as for B1
B3: PVEGFPMP42D10 (VHH)
VHH: B1 VHH with T57I, I59V, A61L, R101A
notes: as for B1
B4: PVEGFPMP42H9 (VHH)
VHH: B1 VHH with I59V
notes: as for B1
B5: PVEGFPMP42C10 (VHH)
VHH: B1 VHH with A24V, T31S, A49S, T57K, R101A
notes: as for B1
B6: PVEGFPMP42C7 (VHH)
VHH: B1 VHH with Q117K
notes: as for B1
B7: PVEGFPMP42D7 (VHH)
VHH: B1 VHH with L20P, I59V
notes: as for B1
B8: PVEGFPMP42D5 (VHH)
VHH: B1 VHH with Q13H, T28A, I59V
notes: as for B1
B9: PVEGFPMP42B10 (VHH)
VHH: EVQLVESGGGLVQAGGSLRLSCTASGRALDTYTVTWFRQTPGKEREFVASNRWNAKPYTTDSVKGRFTISRDNAKNTVYLQMNSLKPEDTAVYYCAADLTTWADGPYRYWGQGTQVTVSS
notes: as for B1
B10: PVEGFPMP42C5 (VHH)
VHH: B9 VHH with E1K, T23A, N51I, V92I
notes: as for B1
B11: PVEGFPMP42H5 (VHH)
VHH: B9 VHH with T59V
notes: as for B1
B12: PVEGFPMP42G5 (VHH)
VHH: B9 VHH with Q3H, T23A, E44T, N51V, L99P
notes: as for B1
B13: PVEGFPMP42F1 (VHH)
VHH: B9 VHH with A14P, T23A, E44T, N51V, L99P
notes: as for B1
B14: PVEGFPMP42E2 (VHH)
VHH: B9 VHH with T23A, E44G, V48L, N51I, I69M, K86R, L99P
notes: as for B1
B15: PVEGFPMP42A5 (VHH)
VHH: EVQLVESGGGLVQAGGSLRLSCAASGRTFSGVDVAWFRQAPGKEREFVAALAWSGIRTYYAVSVKGRFTISRGDPNDTVYLQMTSLKPEDTAVYYCATGRASRTSDYYTDRIYDSWGQGAQVTVSS
notes: as for B1
B16: PVEGFPMP42A3 (VHH)
VHH: B15 VHH with Q3P, L4M
notes: as for B1
B17: PVEGFPMP42F10 (VHH)
VHH: B15 VHH with P41T
notes: as for B1
B18: PVEGFPMP42C1 (VHH)
VHH: B15 VHH with D74N, S102Y, T104G
notes: as for B1

The koff is the rate constant with which the complex falls apart. A higher koff goes with fast dissociation.

Changes are numbered by the printed parent chain.

In the first assay the target is T1, E. coli expressed VEGF109. The assay can be described thus: SPR Biacore 3000, periplasmic extract over VEGF109-coated CM5 chip. As to the method: (§1) Analysis of the results was done using BIAevaluation software. Off-rates were determined by the ‘fit kinetics separate ka/kd’ model, langmuir dissociation. A time interval of ±100s was used for the fitting.
On the technique in general: Surface plasmon resonance follows binding to a sensor surface in real time, without labels.
For B1, the dissociation rate constant (koff) stood at 0.000689 s⁻¹.
In turn, B2 gave an off-rate (koff) of 0.00774 s⁻¹.
B3 returned a koff of 0.00411 s⁻¹.
In turn, B4 came in with a dissociation rate constant (koff) of 0.000315 s⁻¹.
B5 had a koff of 0.00753 s⁻¹.
B6 gave a koff of 0.00061 s⁻¹.
For B7, the koff was 0.000176 s⁻¹.
Still for that read-out and setting: to B8 belongs 0.000368 s⁻¹.
For B9, the dissociation rate constant (koff) is 0.000227 s⁻¹.
On the same count and under the same terms, to B10 belongs 0.000448 s⁻¹.
Consider B11, for which the dissociation rate constant (koff) was 0.000315 s⁻¹.
As for B12, the koff was 0.000251 s⁻¹.
The molecule B13 had an off-rate (koff) of 0.000278 s⁻¹.
Still for that read-out and setting: then B14, with 0.000134 s⁻¹; and B15, with 0.00167 s⁻¹; and B16, with 0.00284 s⁻¹.
The molecule B17 displayed an off-rate (koff) of 0.00176 s⁻¹.
On to B18, for which the off-rate constant (koff) came out at 0.00825 s⁻¹.

The target in a further assay is T2, hVEGF165 (R&D Systems) (human, UniProt P15692 27-191).
T2 construct: mature; also called biotinylated hVEGF165
T2 sequence (P15692 other isoform, or with tags, fused parts or gaps): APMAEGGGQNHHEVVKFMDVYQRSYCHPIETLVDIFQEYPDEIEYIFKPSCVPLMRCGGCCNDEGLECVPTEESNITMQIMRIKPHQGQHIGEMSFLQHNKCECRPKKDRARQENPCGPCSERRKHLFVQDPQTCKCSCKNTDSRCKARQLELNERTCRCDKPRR
The assay can be described thus: SPR Biacore 3000, periplasmic extract over VEGF165-coated CM5 chip. How it is done:
as §1
Take B1: the off-rate constant (koff) was 0.0015 s⁻¹.
In the case of B2, the koff was 0.02 s⁻¹.
With B3, the dissociation rate constant (koff) came to 0.00634 s⁻¹.
For B4, the koff came to 0.00149 s⁻¹.
With B5, the off-rate constant (koff) worked out at 0.0168 s⁻¹.
Still for that read-out and setting: then B6, with 0.00151 s⁻¹; and B7, with 0.00094 s⁻¹.
Consider B8, for which the off-rate (koff) stood at 0.00147 s⁻¹.
Same read-out and setting: to B9 belongs 0.000362 s⁻¹; to B10, 0.000641 s⁻¹; to B11, 0.000528 s⁻¹.
Molecule B12 registered a koff of 0.000447 s⁻¹.
As for B13, the koff came to 0.000501 s⁻¹.
Turning to B14, the off-rate (koff) came out at 0.000311 s⁻¹.
Consider B15, for which the off-rate constant (koff) stood at 0.00154 s⁻¹.
Same read-out and setting: to B16 belongs 0.00259 s⁻¹; to B17, 0.00165 s⁻¹.
B18 came in with a koff of 0.00835 s⁻¹.
